Experiments:
[1] = biological target: gC1qR, wild type, mature recombinant (receptor for the globular heads of C1q) (UniProt Q07021); assay: SPR; gC1qR-WT or gC1qR-ΔΔ immobilised; two-fold dilution series of analyte injected; reference-corrected sensorgrams fit to kinetic models; apparent KD
[2] = biological target: gC1qR-ΔΔ, gC1qR deletion mutant that removed the flexible, negatively charged loops (UniProt Q07021); assay: not stated; not published; oligomeric state of gC1qR-ΔΔ in solution and in the crystal

Sequence of gC1qR, wild type, mature recombinant (receptor for the globular heads of C1q) (Q07021 74-282): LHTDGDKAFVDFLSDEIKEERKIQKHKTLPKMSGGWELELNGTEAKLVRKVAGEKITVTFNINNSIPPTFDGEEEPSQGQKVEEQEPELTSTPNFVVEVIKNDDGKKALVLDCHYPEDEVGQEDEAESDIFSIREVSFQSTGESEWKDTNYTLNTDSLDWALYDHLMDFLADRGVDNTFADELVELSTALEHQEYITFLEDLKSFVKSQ
Sequence of gC1qR-ΔΔ, gC1qR deletion mutant that removed the flexible, negatively charged loops (from UniProt Q07021 74-282) (receptor) (Q07021 74-282, stated change not applied): as the sequence (Q07021 74-282) above

SARS-CoV-2 Membrane-Envelope fusion protein, recombinant
Kd [1]: 0.41 µM

gC1qR-ΔΔ, gC1qR deletion mutant that removed the flexible, negatively charged loops (from UniProt Q07021 74-282) (receptor)
stoichiometry N [2]: 3

— paper PMC8602850
